In patent publication US7005283B2, “Cytochrome P450 oxygenases and their uses” (Washington State University Research Foundation, priority 1999, dated 2006):

Assays:
[1] = In vivo assay of yeast cells expressing recombinant oxygenases, radio-HPLC, substrate taxadiene; assay type: cell-based, Saccharomyces cerevisiae; conditions: assayed with Taxadiene; graded symbols, key not given
[2] = In vitro enzyme assay for taxoid oxygenase activity (baculovirus-Spodoptera expressed enzyme), substrate taxadiene; assay type: biochemical, Spodoptera frugiperda; conditions: 30 μM substrate, 32° C., 12 hours
Description: The standard enzyme assay for assessing oxygenase activity of the recombinant cytochrome P450 employed the following conditions: 25 mM HEPES buffer, pH 7.5, 400 μM NADPH, 300 μg protein and 30 μM substrate (taxadiene, taxadienol, or taxadienyl acetate) in a total volume of 1 mL. Samples were incubated at 32° C. for 12 hours, after which 1 mL of saturated NaCl solution was added to the reaction mixture, followed by extraction of the product with 2 mL of hexane/ethyl acetate (4:1, v/v). […]
For the functional characterization of clone F16, the recombinant baculovirus carrying the cytochrome P450 clone F16 ORF was coexpressed with a recombinant baculovirus carrying the Taxus NADPH:cytochrome P450 reductase gene. […] The viral titers were determined according to the End-Point Dilution method (O'Reilly et al., Baculovirus Expression Vectors, A Laboratory Manual, New York, N.Y., Freeman and Company, 1992). […]

[3] = assay type: binding, Saccharomyces cerevisiae
Procedure, shortened: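 Full-length Taxus cytochrome P450 clones in pYeDP60 were expressed in yeast, with induction by galactose (10% final) for about 24 h. Whole cells were treated with CO, and CO-difference spectra were recorded spectrophotometrically against untreated cells.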

[4] = In vitro enzyme assay for taxoid oxygenase activity (baculovirus-Spodoptera expressed enzyme), substrate taxadienol; assay type: biochemical, Spodoptera frugiperda
Description: The standard enzyme assay for assessing oxygenase activity of the recombinant cytochrome P450 employed the following conditions: 25 mM HEPES buffer, pH 7.5, 400 μM NADPH, 300 μg protein and 30 μM substrate (taxadiene, taxadienol, or taxadienyl acetate) in a total volume of 1 mL. Samples were incubated at 32° C. for 12 hours, after which 1 mL of saturated NaCl solution was added to the reaction mixture, followed by extraction of the product with 2 mL of hexane/ethyl acetate (4:1, v/v). The extracts were dried and dissolved in acetonitrile for product analysis by radio-HPLC [column: Alltech Econosil C18 5 μm particle size (250 mm×4.6 mm): solvent system A: 0.01% (v/v) H3PO4, 2% acetonitrile, 97.99% H2O; solvent system B: 0.01% H3PO4, 99.99 acetonitrile; gradient: 0–5 minutes, 100% A; 5–15 minutes, 0–50% B; 15–55 minutes, 50–100% B; 55–65 minutes, 100% B; 65–70 minu A; 70–75 minutes, 100% A; flow rate 1 mL/minute; for detection, a radio-chromatography detector (Flow-One®-Beta Series A-100, Radiomatic) was used].
For the functional characterization of clone F16, the recombinant baculovirus carrying the cytochrome P450 clone F16 ORF was coexpressed with a recombinant baculovirus carrying the Taxus NADPH:cytochrome P450 reductase gene. To the insect cell suspension, the two recombinant baculoviruses were added at a multiplicity of infection of 1–5. The viral titers were determined according to the End-Point Dilution method (O'Reilly et al., Baculovirus Expression Vectors, A Laboratory Manual, New York, N.Y., Freeman and Company, 1992). For infection, the cells were incubated for 1 hour at 28° C. and 80 rpm. The cell culture volume was brought to 50 mL with standard cell culture medium, and hemin (Sigma) was added to a final concentration of 2 μg/mL. The infected cells were incubated for 48 hours in a gyratory shaker at 28° C. and 140 rpm. The infected insect cells were harvested from the cell culture medium by centrifugation as described above, and washed twice with PBS (50 mM KH2PO4, pH 7.5, 0.9% NaCl). […]

B1: clone F16: Taxus cuspidata cytochrome P450 taxane 9α-hydroxylase, full-length clone, SEQ ID NO: 82 (nt) / 88 (aa) (protein, listed as Taxus cuspidata)
chain: MDALKQLEVSPSILFVTLAVMAGIILFFRSKRHSSVKLPPGNLGFPLVGETLQFVRSLGSSTPQQFIEERMSKFGDVFKTSIIGHPTVVLCGPAGNRLVLSNENKLVQMSWPSSMMKLIGEDCLGGKTGEQHRIVRAALTRFLGPQALQNHFAKMSSGIQRHINEKWKGKDEATVLPLVKDLVFSVASRLFFGITEEHLQEQLHNLLEVILVGSFSVPLNIPGFSYHKAIQARATLADIMTHLIEKRRNELRAGTASENQDLLSVLLTFTDERGNSLADKEILDNFSMLLHGSYDSTNSPLTMLIKVLASHPESYEKVAQEQFGILSTKMEGEEIAWKDLKEMKYSWQVVQETLRMYPPIFGTFRKAITDIHYNGYTIPKGWKLLWTTYSTQTKEEYFKDADQFKPSRFEEEGKHVTPYTYLPFGGGMRVCPGWEFAKMETLLFLHHFVKAFSGLKAIDPNEKLSGKPLPPLPVNGLPIKLYSRS
[1]
  product identified HPLC peak: No
[2]
  conversion of taxadiene to an oxygenated product: not converted detectably
[3]
  CO diff. spec.: +++
[4]; 30 μM substrate, 32° C., 12 hours, GC-MS
  conversion of taxa-4(20),11(12)-dien-5α-ol: converted most efficiently to a diol product
[4]; baculovirus-Spodoptera expression
  enzyme function assigned from screening: cytochrome P450 taxane-9α-hydroxylase
[4]; preparative incubation, 1H- and 13C-NMR
  identity of the product of the oxygenase reaction with taxadienol: taxa-4(20),11(12)-dien-5α,9α-diol
